Target: inactive C105A human m-calpain heterodimer (C105A large subunit with truncated small subunit) (human, UniProt P17655 20-700; P04632 1-268, C105A, Ca2+-bound during hCSD1 binding. C-terminal His tag of the large subunit omitted. The ΔG2 small-subunit limits are not printed (they are in the cited Hata 2012 paper); the 184-residue small subunit of)
Experiment: BLI; GST-immobilized hCSD1; purified C105A-calpain from the affinity method in solution
Conditions: both partners purified

Kd: 1.7 nM
B1: N-terminal glutathione S-transferase-tagged human calpastatin domain 1 (domain or fragment, UniProt P20810 137-277, looked up)
chain: AVPVESKPDKPSGKSGMDAALDDLIDTLGGPEETEEENTTYTGPEVSDPMSSTYIEELGKREVTIPPKYRELLAKKEGITGPPADSSKPIGPDDAIDALSSDFTCGSPTAAGKKTEKEESTEVLKAQSAGTVRSAAPPQEK
notes: synthetic gene in pGEX-4T-1; GST is fused N-terminally through a linker; the tag can be removed by thrombin; also called GST-hCSD1; GST-tagged hCSD1; source: E. coli BL21(DE3), purified (GSTrap FF); not shown: GST, N-terminal, kept

From publication PMC5358782, “Affinity purification of human m-calpain through an intrinsically disordered inhibitor, calpastatin” (PLoS ONE, 2017)
